Results reported in PMC6530537 (2019).

Target: CK2β (Homo sapiens, UniProt P67870)
Test: ITC

Sequence of CK2β (P67870 2-215): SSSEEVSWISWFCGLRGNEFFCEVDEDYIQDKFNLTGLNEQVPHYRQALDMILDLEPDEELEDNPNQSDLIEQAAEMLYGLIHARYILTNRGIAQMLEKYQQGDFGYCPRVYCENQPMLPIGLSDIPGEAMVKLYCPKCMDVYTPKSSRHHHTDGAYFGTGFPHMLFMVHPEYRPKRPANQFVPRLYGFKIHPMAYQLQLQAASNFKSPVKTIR

B1: CK2α (protein)
chain: MSGPVPSRARVYTDVNTHRPREYWDYESHVVEWGNQDDYQLVRKLGRGKYSEVFEAINITNNEKVVVKILKPVKKKKIKREIKILENLRGGPNIITLADIVKDPVSRTPALVFEHVNNTDFKQLYQTLTDYDIRFYMYEILKALDYCHSMGIMHRDVKPHNVMIDHEHRKLRLIDWGLAEFYHPGQEYNVRVASRYFKGPELLVDYQMYDYSLDMWSLGCMLASMIFRKEPFFHGHDNYDQLVRIAKVLGTEDLYDYIDKYNIELDPRFNDILGRHSRKRWERFVHSENQHLVSPEALDFLDKLLRYDHQSRLTAREAMEHPYFYTVVKDQARMGSSSMPGGSTPVSSANMMSGISSVPTPSPLGPLAGSPVIAAANPLGMPVPAAAGAQQ
In the case of B1, the Kd is reported as 9 nM.
